{
  "source": "paper PMC4369429",
  "biological_target": "Steroid receptor coactivator 3 (SRC-3), recombinant, wild type (UniProt Q9Y6Q9)",
  "sequence (Q9Y6Q9 whole entry)": "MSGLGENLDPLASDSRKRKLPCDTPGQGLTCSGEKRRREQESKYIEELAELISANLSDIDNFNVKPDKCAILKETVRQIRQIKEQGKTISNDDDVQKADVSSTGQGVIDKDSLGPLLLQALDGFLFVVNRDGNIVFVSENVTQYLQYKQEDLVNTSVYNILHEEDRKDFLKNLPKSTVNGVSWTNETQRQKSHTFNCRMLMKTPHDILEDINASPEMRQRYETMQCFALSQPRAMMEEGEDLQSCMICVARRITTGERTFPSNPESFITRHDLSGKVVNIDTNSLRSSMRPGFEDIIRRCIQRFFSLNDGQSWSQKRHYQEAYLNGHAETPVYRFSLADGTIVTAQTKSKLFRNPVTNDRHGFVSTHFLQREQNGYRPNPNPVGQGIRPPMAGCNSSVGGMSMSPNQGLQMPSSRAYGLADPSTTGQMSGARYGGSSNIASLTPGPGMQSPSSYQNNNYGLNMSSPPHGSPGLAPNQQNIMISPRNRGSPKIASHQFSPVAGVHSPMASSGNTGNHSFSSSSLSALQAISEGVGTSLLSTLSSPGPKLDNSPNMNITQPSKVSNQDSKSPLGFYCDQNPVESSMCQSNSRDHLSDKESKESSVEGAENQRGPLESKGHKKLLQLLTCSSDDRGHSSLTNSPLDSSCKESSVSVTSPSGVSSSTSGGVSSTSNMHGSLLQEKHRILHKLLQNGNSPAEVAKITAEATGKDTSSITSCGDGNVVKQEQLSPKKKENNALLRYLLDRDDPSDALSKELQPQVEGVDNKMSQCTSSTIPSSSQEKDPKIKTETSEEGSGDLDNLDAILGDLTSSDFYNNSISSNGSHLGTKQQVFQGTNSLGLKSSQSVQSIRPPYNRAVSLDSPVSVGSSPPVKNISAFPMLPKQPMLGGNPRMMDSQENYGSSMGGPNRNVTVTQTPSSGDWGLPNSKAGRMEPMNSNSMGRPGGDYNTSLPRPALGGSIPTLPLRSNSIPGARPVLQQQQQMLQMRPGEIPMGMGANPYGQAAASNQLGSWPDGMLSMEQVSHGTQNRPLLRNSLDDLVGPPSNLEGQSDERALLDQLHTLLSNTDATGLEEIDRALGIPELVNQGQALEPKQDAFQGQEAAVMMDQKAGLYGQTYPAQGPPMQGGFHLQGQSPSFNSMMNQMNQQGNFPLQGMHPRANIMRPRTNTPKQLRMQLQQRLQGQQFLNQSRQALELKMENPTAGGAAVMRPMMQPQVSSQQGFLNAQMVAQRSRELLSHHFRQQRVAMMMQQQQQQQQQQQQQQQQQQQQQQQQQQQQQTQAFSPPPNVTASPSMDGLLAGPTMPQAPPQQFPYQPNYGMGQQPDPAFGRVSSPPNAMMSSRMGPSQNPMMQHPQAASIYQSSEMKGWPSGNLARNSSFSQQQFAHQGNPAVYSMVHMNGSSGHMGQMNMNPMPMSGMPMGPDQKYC",
  "assay": "cryo-EM structure",
  "data": [
    {"substance": "p300, recombinant, Q09472 1-2414", "values": [
      {"measurement": "stoichiometry N (p300 molecule per two SRC-3)", "value": 1}
    ]}
  ]
}
